For assay [1], the target named is synthetic 10-mer peptide of γ-D-glutamic acids.
The target in another assay is BSA (UniProt P02769 25-607). Put plainly: ELISA, full-length IgG. On the technique in general: ELISA stands for enzyme-linked immunosorbent assay.
Sequence of BSA (P02769 25-607 limits assumed): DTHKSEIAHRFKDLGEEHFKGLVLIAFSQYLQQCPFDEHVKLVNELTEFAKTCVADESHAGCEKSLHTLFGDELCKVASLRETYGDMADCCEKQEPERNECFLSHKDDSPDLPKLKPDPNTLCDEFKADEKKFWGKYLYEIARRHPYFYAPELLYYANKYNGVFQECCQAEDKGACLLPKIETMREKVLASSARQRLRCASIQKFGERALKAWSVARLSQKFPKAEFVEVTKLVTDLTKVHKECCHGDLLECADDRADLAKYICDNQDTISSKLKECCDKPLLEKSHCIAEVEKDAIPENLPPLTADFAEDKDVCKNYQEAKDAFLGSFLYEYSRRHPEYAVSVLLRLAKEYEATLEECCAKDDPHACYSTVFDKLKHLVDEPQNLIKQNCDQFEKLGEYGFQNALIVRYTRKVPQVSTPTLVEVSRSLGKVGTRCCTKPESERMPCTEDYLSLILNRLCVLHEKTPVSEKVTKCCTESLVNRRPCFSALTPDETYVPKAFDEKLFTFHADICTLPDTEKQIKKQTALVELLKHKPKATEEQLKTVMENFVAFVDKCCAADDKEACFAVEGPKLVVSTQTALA

B1: anti-γDPGA chimpanzee monoclonal antibody 4C, full-length IgG with human γ1 constant regions (antibody, V domains shown)
VH: LEESGGGLVKPGDSLRLSCAASGFTFSVYAMHWVRQAPEKGLEWVSTIGAGGNTWHSDSVKGRYTIARDNSQNTLSLQMNSLRAEDTAVYYCVRRGYCSSTRCDSNDAFDIWGQGTMVTVS
VL: APMTQSPSSLSASVGDRVSITCRASQDINDFLAWFQQKPGKAPKRLIFRTSSLQGGVSSRFSGSGSGTEFTLTISNLRPEDFATYYCLQHSSYPPTFGQGTKLEISR
notes: also called 4C IgG; IgG1 of anti-γDPGA 4C monoclonal antibody
Consider B1, for which, in assay [1], the Kd (usually a measure of binding affinity in units of concentration) turned out to be 0.55 nM, the koff (usually the first-order rate constant of dissociation) was 0.0023 s⁻¹ and the kon (usually the second-order rate constant of association) is 4.2e+06 M⁻¹ s⁻¹. Moreover, the binding result in the assay with BSA was “no binding”.

B2: anti-γDPGA chimpanzee monoclonal antibody 11D, full-length IgG with human γ1 constant regions (antibody, V domains shown)
VH: LESGGGLVKPGGSLTLSCAASGFTFSTYAMHWVRQAPEKGLEWVSTIGRSGDTLYSDSVKGRFSISRDNSKNTLYLQMNSLRAEDTAVYYCARKGYCSSTNCQSQYYFDYWGQGTLVTVS
VL: ELTQSPSSLSASVGGRVTITCRASQDVNTWLAWYQQKPGKAPKPLIYAASSLQGGVPSRFSGSGSGTDFTLTISSLQPEDFATYYCQQYKHYPLTFGGGTKVEIKR
notes: also called 11D IgG; CH11D-hG1
In assay [1], B2 yielded a Kd of 0.082 nM, an off-rate (koff) of 9.04e-05 s⁻¹ and a kon of 1.1e+06 M⁻¹ s⁻¹. For the same molecule, the binding result in the assay with BSA is given as “no binding”.
